Assay [1] addresses T1, mouse MOG overexpressed on cells (293T-mMOG, K562-mMOG) (mouse, UniProt Q61885 29-246).
T1 construct: whole, on cells
T1 sequence (looked up): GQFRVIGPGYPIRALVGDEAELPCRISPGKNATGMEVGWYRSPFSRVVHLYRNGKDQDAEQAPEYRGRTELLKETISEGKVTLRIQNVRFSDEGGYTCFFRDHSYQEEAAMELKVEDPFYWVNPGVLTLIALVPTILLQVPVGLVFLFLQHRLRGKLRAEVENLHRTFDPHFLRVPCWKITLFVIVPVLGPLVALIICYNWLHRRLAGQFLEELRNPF
The assay can be described thus: flow cytometry, Fab on 293T-mMOG cells, Anti-Fc-FITC secondary, MFI.

For assay [2], the target named is T2, human MOG overexpressed on cells (293T-hMOG, K562-hMOG) (human, UniProt Q16653 30-247).
T2 construct: Cells overexpressing human MOG built by conventional techniques; also called K562-huMOG
T2 chain: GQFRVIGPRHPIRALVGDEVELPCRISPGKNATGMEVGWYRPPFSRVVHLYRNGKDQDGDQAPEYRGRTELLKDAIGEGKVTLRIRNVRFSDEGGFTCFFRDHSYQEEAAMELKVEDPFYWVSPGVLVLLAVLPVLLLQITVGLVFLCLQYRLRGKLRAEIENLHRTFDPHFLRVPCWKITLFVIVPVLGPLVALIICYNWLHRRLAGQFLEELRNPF
The assay can be described thus: flow cytometry, Fab 5 µg/mL on 293T-hMOG cells, Anti-Fc-FITC secondary, MFI; controls 293T cells and NA (no antibody).

Another assay concerns the target T3, recombinant hMOG_his (human, UniProt Q16653 30-154, limits assumed).
T3 construct: also called human MOG antigen; not shown: His tag
T3 sequence: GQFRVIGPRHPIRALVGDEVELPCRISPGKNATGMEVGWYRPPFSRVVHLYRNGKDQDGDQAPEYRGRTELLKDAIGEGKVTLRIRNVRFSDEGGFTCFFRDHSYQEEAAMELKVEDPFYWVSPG
The assay can be described thus: SPR, Biacore T200; MOG_His amine-coupled on CM5, Fab as analyte, 1:1 Langmuir fit. For orientation: In SPR one partner is held on a chip, and binding of the other changes the refractive index at the surface.

Assay [3] has as its target T1, mouse MOG overexpressed on cells …. Kind of assay: flow cytometry, Fab 5 µg/mL on 293T-mMOG cells, Anti-Fc-FITC secondary, MFI; controls 293T cells and NA (no antibody). A general note: Flow cytometry measures light scatter and fluorescence of single cells or particles in a stream.

B1: A3 (Fab form) (Fab, V domains shown)
VH: QVQLVQSGAEVKKPGSSVKVSCKASGGTFSSYAISWVRQAPGQGLEWMGGIIPIFGTANYAQKFQGRVTITADKSTSTAYMELSSLRSEDTAVYYCARGWYFFDAGFDYWGQGTTVTVSS
VL: DIQMTQSPSTLSASVGDRVTITCRASQSISSWLAWYQQKPGKAPKLLIYDASSLESGVPSRFSGSGSGTEFTLTISSLQPDDFATYYCQQYDSPLLTFGQGTKVEIKR
notes: Fully human anti-MOG clone tested in Fab form; also called antibody A3
As a reminder, the Kd is the equilibrium constant for the complex coming apart. One may read the koff as the rate constant with which the complex falls apart. What is called kon is a measure of how fast the partners come together. B1: the binding result in assay [1] was “no binding”. Also, the binding result in assay [2] is “binds”. In addition, in the assay with recombinant hMOG_his, the Kd was 5.92 nM, the koff was 0.00139 s⁻¹ and the on-rate constant (kon) was found to be 234000 M⁻¹ s⁻¹.

B2: A7 (Fab form) (Fab, V domains shown)
VH: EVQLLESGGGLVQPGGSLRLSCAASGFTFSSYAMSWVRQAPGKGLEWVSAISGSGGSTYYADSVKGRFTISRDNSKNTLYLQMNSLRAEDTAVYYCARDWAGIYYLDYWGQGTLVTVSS
VL: DIQMTQSPSTLSASVGDRVTITCRASQSISSWLAWYQQKPGKAPKLLIYDASSLESGVPSRFSGSGSGTEFTLTISSLQPDDFATYYCQQSDTYPRTFGQGTKVEIKR
notes: Fully human anti-MOG clone tested in Fab form; also called antibody A7
Turning to B2, the binding result in assay [3] is “binds”. Besides, the binding result in assay [2] is given as “binds”. In the assay with recombinant hMOG_his, the Kd came to 25.6 nM, the koff amounted to 0.00166 s⁻¹ and the kon turned out to be 65000 M⁻¹ s⁻¹.

B3: A5 (Fab form) (Fab, V domains shown)
VH: QVQLVQSGAEVKKPGSSVKVSCKASGGTFSSYAISWVRQAPGQGLEWMGGIIPIFGTANYAQKFQGRVTITADKSTSTAYMELSSLRSEDTAVYYCARAPYSPTYYPFDYWGQGTTVTVSS
VL: DIQMTQSPSTLSASVGDRVTITCRASQSISSWLAWYQQKPGKAPKLLIYDASSLESGVPSRFSGSGSGTEFTLTISSLQPDDFATYYCQQYSMDHLTFGQGTKVEIKR
notes: Fully human anti-MOG clone tested in Fab form; also called antibody A5
Turning to B3, in assay [3], the binding result is reported as “binds”. The binding result in assay [2] is reported as “binds”. Also, in the assay with recombinant hMOG_his, the Kd turned out to be 27.6 nM, the koff turned out to be 0.00278 s⁻¹ and the kon worked out at 101000 M⁻¹ s⁻¹.

B4: A4 (Fab form) (Fab, V domains shown)
VH: QVQLVQSGAEVKKPGSSVKVSCKASGGTFSSYAISWVRQAPGQGLEWMGGIIPIFGTANYAQKFQGRVTITADKSTSTAYMELSSLRSEDTAVYYCAREWYWPDNPFDYWGQGTTVTVSS
VL: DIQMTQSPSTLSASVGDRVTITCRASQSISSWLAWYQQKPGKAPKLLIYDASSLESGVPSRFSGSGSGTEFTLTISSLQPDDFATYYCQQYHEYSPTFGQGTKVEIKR
notes: Fully human anti-MOG clone tested in Fab form; also called antibody A4
As to B4, the binding result in assay [3] was “binds”. In assay [2], the binding result is given as “binds”. In addition, in the assay with recombinant hMOG_his, the Kd came to 24 nM, the koff was found to be 0.000516 s⁻¹ and the kon came out at 21500 M⁻¹ s⁻¹.

B5: A1 (Fab form) (Fab, V domains shown)
VH: QVQLVQSGAEVKKPGSSVKVSCKASGGTFSSYAISWVRQAPGQGLEWMGGIIPIFGTANYAQKFQGRVTITADKSTSTAYMELSSLRSEDTAVYYCARGYFSEEAMDYWGQGTTVTVSS
VL: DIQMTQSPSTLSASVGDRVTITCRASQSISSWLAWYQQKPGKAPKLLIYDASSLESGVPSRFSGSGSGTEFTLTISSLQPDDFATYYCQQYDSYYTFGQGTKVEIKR
notes: Fully human anti-MOG clone tested in Fab form; also called antibody A1
Consider B5, for which the binding result in assay [1] was “no binding”. In addition, the binding result in assay [2] is reported as “binds”. In the assay with recombinant hMOG_his, the Kd stood at 7.26 nM, the koff came to 0.00193 s⁻¹ and the kon worked out at 266000 M⁻¹ s⁻¹.

B6: A9 (Fab form) (Fab, V domains shown)
VH: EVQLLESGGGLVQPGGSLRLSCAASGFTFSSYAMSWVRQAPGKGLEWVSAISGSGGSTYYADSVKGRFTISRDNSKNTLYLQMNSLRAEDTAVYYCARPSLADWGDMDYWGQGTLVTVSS
VL: DIQMTQSPSTLSASVGDRVTITCRASQSISSWLAWYQQKPGKAPKLLIYDASSLESGVPSRFSGSGSGTEFTLTISSLQPDDFATYYCQQYDQYWTFGQGTKVEIKR
notes: also called antibody A9
For the molecule B6, the binding result in assay [1] is reported as “no binding”. The binding result in assay [2] is given as “binds”. Also, in the assay with recombinant hMOG_his, the Kd turned out to be 2.28 nM, the koff is 0.000287 s⁻¹ and the kon was 125000 M⁻¹ s⁻¹.

B7: A12 (Fab form) (Fab, V domains shown)
VH: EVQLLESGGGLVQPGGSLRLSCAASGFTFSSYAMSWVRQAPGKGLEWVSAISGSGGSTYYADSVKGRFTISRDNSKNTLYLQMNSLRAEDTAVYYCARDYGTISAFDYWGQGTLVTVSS
VL: DIQMTQSPSTLSASVGDRVTITCRASQSISSWLAWYQQKPGKAPKLLIYDASSLESGVPSRFSGSGSGTEFTLTISSLQPDDFATYYCQQYGIPWTFGQGTKVEIKR
notes: Fully human anti-MOG clone tested in Fab form; also called antibody A12
As to B7, in assay [1], the binding result is given as “no binding”. Also, in assay [2], the binding result is given as “binds”. In addition, in the assay with recombinant hMOG_his, the Kd is 6.83 nM, the koff was 0.00103 s⁻¹ and the kon came out at 151000 M⁻¹ s⁻¹.

B8: A11 (Fab form) (Fab, V domains shown)
VH: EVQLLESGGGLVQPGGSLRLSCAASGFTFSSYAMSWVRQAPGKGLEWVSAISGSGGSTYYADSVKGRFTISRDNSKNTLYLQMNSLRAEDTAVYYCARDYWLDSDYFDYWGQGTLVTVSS
VL: DIQMTQSPSTLSASVGDRVTITCRASQSISSWLAWYQQKPGKAPKLLIYDASSLESGVPSRFSGSGSGTEFTLTISSLQPDDFATYYCQQVYIYSTFGQGTKVEIKR
notes: Fully human anti-MOG clone tested in Fab form; also called antibody A11; All [sic]
For the molecule B8, in assay [1], the binding result is recorded as “no binding”. Besides, in assay [2], the binding result was “binds”. Also, in the assay with recombinant hMOG_his, the Kd amounted to 17.6 nM, the koff stood at 0.00432 s⁻¹ and the kon came out at 246000 M⁻¹ s⁻¹.

Values taken from US20260218128A1 (CARSGEN LIFE SCIENCES, published 2026).
